# Measurements published in paper PMC8124314.
# Like-named read-outs stand apart in the source and are kept apart here.
# Assays:
# [1] = biological target: E-cadherin (Homo sapiens) (UniProt P12830); conditions: cited from earlier work
# [2] = biological target: MBP-fused epithelial cadherin (MBP-eCAD); assay: SPR
# [3] = biological target: MBP-fused epithelial cadherin (MBP-eCAD); assay: SPR; remark: listed apart in the source
Substance,Kd [1] [µM],Kd [2] [µM],koff [2] [s⁻¹],kon [2] [M⁻¹ s⁻¹],Kd [3] [µM]
E-cadherin (from UniProt P12830),100,–,–,–,–
MBP-fused epithelial cadherin (MBP-eCAD) (domain or fragment),–,0.197,0.000696,4650,197
